# Test results published in patent US7078174B1, “Screening methods using SOCS box-containing peptides” (The Walter & Eliza Hall Institute of Medical Research, priority 1998, dated 2006).
# “Also recorded” adds a separate entry of the source. Square brackets hold non-standard residues; d marks the D form. Ends that are not written are not given here. Peptide text beside a SMILES is read from it. * marks the point of attachment. Biotin = O=C1N[C@H]2[C@H](CS[C@H]2CCCCC(=O)*)N1; Nle = CCCC[C@H](N)C(=O)O
# Experiments:
# SOCS-3 protein = test: IL-6-induced expression of endogenous SOCS-3 protein in J774 cells; assay type: cell-based; settings: LLnL 50 μM, 100 ng/ml murine IL-6, 30–180 min
# Experimental: Mouse macrophage-like J774 cells were grown continuously in DME containing 10% bovine calf serum. The cells were washed once in PBS, twice with DME and starved for 1 h in DME containing 0.1% w/v low-endotoxin bovine serum albumin (BSA; Sigma). The proteasome inhibitor LLnL dissolved in dimethyl sulfoxide (DMSO) or DMSO was added to the cells for 15 min and the cells then stimulated with 100 ng/ml of murine IL-6 for the indicated times.
# Proteins were immunoprecipitated with anti-myc (9E10; WEHI) and protein A-Sepharose or anti-FLAG antibody conjugated to Sepharose (KM5-IC7; WEHI) and separated by sodium dodecyl sulphate-polyacrylamide gel electrophoresis (SDS-PAGE) (Biorad, Hercules, Calif.) under reducing conditions. Proteins were then electrophoretically transferred to PVDF-Plus membranes (Micron Separations Inc. WestBorough, Mass.) and Western blotted as described (8).
# elongins B and C [1] = target: T1, elongins B and C (Mus musculus, UniProt P62869+P83940); test: Affinity purification of SOCS box-binding proteins from M1 cell lysates on GST-SOCS box Sepharose; design: species or system murine; settings: mass spectrometry and Western blot, not seen with GST control
# T1 construct: endogenous in cells; host or cells: M1 murine monocytic leukemic cells
# T1 sequence (P83940 whole entry): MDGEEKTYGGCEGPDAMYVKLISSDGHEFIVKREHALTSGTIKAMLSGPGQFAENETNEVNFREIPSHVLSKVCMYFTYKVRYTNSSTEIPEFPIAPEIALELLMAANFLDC
# T1 sequence (P62869 whole entry): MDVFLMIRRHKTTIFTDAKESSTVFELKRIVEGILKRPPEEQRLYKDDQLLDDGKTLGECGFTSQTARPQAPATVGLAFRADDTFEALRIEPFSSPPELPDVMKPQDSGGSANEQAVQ
# Experimental: DNA fragments encoding the SOCS boxes from mouse SOCS-1 (residues 172–212) and SOCS-3 (residues 186–225) with an N-terminal linker sequence (EGKSSGSGSESKVD) (SEQ ID NO:3) were generated by PCR and cloned into the bacterial expression vector pGEX-2T (9). The GST fusion proteins were purified by affinity chromatography on glutathione Sepharose 4B (Amersham Pharmacia Biotec) and affinity resins were prepared by covalently coupling 1 mg of purified proteins to 1 ml of NHS-activated Sepharose resin (Amersham Pharmacia Biotec). Before use, the affinity resins were washed with elution buffer (0.5% w/v SDS, 50 mM DTT, 50 mM Tris-HCl, pH 8.0 and 150 mM NaCl) and equilibrated in lysis buffer (0.5% w/v Nonidet P-40, 10 mM Tris-HCl, pH 7.5 and 100 mM NaCl).
# M1 cells (2×10^10) were lysed on ice for 30 min in 100 ml of lysis buffer supplemented with protease inhibitors (Complete Cocktail tablets; Boehringer Mannheim, Mannheim, Germany), 1 mM PMSF, 1 mM Na3VO4 and 1 mM NaF. The total cell lysate was centrifuged at 15,000 rpm (SS34 rotor) for 15 min at 4° C. and the clarified supernatant pre-incubated with 1 ml of GST-Sepharose resin for 2 h at 4° C. Half the GST-Sepharose-depleted M1 cell lysate was incubated with 1 ml of GST-SOCS-1 SOCS box- and the other half with GST-SOCS-3 SOCS box-Sepharose resin for 2 h at 4° C. […]
# elongin C = target: T2, elongin C (Mus musculus, UniProt P83940); test: Competition of SOCS-1 SOCS box/elongin C interaction in M1 cellular extracts; assay type: binding, murine; settings: 80 mM competing non-biotinylated SOCS box peptide, SDS-PAGE, silver staining
# T2 construct: endogenous in cells; host or cells: M1 murine monocytic leukemic cells (lysate)
# T2 sequence (P83940 whole entry): as the sequence (P83940 whole entry) above
# T2 sequence (P62869 whole entry partner): as the sequence (P62869 whole entry) above
# Experimental: (§1) Following biotinylation, the peptide was reduced by treatment with 5 mM DTT. Typically, peptide was coupled to streptavidin-agarose resin (Pierce immunopure; 1–2 mg streptavidin/mL resin) by incubating equal volumes of resin and 1 mg/mL peptide for 1 h, followed by extensive washing.
# (§2) M1 cells were lysed as previously described, except at a concentration of 10^9 cells/mL of lysis buffer. Streptavidin-agarose binding proteins were precleared from lysate by treating overnight at 4° C. with streptavidin-agarose resin (100 μL of resin/mL lysate). SOCS box peptides (SOCS-1, ASB-2 and WSB-2) were solubilized in water at 10 mg/mL, and aliquots of these, or water alone, were added to 350 μL fractions of cleared lysate, followed by incubation for 3 h at 4° C. These lysates were then added to 30 μL of SOCS-1 SOCS box peptide resin and incubated a further 2 h at 4° C. The resin was extensively washed with lysis buffer and bound proteins were eluted with 20 μL of 4×SDS sample buffer. Proteins were separated by SDS-PAGE on a 4–15% reducing gel.
# elongins B and C [2] = target: T1, elongins B and C; test: Affinity purification from M1 cellular extracts with biotinylated SOCS-1 SOCS box peptide on streptavidin-agarose; assay type: binding, murine; settings: streptavidin-agarose bound peptide; mass spectrometry
# Experimental: as §1, §2
elongins B and C in eluates from affinity resin (elongins B and C [1]),Compound,competition of elongin C binding to immobilized SOCS-1 SOCS box peptide (elongin C),further results
–,"CCCC[C@@H](C=O)NC(=O)[C@H](CC(C)C)NC(=O)[C@H](CC(C)C)NC(C)=O [LLnL, N-acetyl-L-leucinyl-L-leucinyl-norleucinal] (Ac-Leu-Leu-[Nle]-aldehyde)",–,SOCS-3 protein levels after IL-6 stimulation (SOCS-3 protein): continual increase in SOCS-3 protein levels
both elongins were present in eluates,"GST-SOCS-1 SOCS box: GST fusion protein with SOCS box of mouse SOCS-1 (residues 172–212) and N-terminal linker, coupled to Sepharose (EGKSSGSGSESKVDVRPLQELCRQRIVAAVGRENLARIPLNPVLRDYLSSFPFQI; not fully specified (N-terminus); also: coupled to Sepharose)",–,–
both elongins were present in eluates,"GST-SOCS-3 SOCS box: GST fusion protein with SOCS box of mouse SOCS-3 (residues 186–225) and N-terminal linker, coupled to Sepharose (EGKSSGSGSESKVDVATLQHLCRKTVNGHLDSYEKVTQLPGPIREFLDQYDAPL; not fully specified (N-terminus); also: coupled to Sepharose)",–,–
–,SOCS-1 SOCS box peptide: Synthetic peptide fragment of murine SOCS-1 corresponding to the SOCS box and five upstream N-terminal residues (LRQRRVRPLQELCRQRIVAAVGRENLARIPLNPVLRDYLSSFPFQI),competed for this interaction; also recorded: prevented binding of elongin C to immobilized SOCS-1 SOCS box,–
–,WSB-2 SOCS box peptide: Synthetic peptide fragment of murine WSB-2 corresponding to the SOCS box and five upstream N-terminal residues (TAPRVLSSLKHLCRKALRSFLTTYQVLALPIPKKMKEFLTYRTF),competed for this interaction; also recorded: prevented binding of elongin C to immobilized SOCS-1 SOCS box,–
–,"biotinylated SOCS-1 SOCS box peptide: SOCS-1 SOCS box peptide biotinylated at the amino terminus with sulfosuccinimidobiotin, coupled to streptavidin-agarose (Biotin-LRQRRVRPLQELCRQRIVAAVGRENLARIPLNPVLRDYLSSFPFQI; also: coupled to streptavidin-agarose)",–,interacting proteins identified in M1 cellular extracts (elongins B and C [2]): identification by mass spectrometry of elongins B and C as interacting proteins
